Assay results published in patent publication US20230303681A1.

Tests used:
[1] = target: mouse TMEM106B (mouse) (UniProt Q80X71); experiment: FACS, HEK293 transfectants
[2] = target: mouse TMEM106B (mouse) (UniProt Q80X71); experiment: FACS Neuro2a

- fold-change over parental HEK293 [1]: 1.97 fold
- MFI [2]: 325
B1: anti-TMEM106B antibody TM-4 (antibody, V domains shown)
VH: EVQVQQSGPVLVKPGASVKMSCKASGYTFTDYYMNWVKQSHGKNLEWIGVINPYNGGTSYHQKFKGKATLTVDKSSSTAYMELNSLTSEDSAVYYCARAATVVAGFDYWGQGTTLTVSS
VL: QAVVTQESALTTSPGETVTLTCRSSTGAVTTSNYANWVQEKPDHLFTGLIGGTNNRAPGVPARFSGSLIGDKAALTITGAQTEDEAIYFCVLWYSNHLVFGGGTKLTVL
